Patent US20060110800A1 (ZymoGenetics, published 2006)

Molecular target: T1, 125I-IL-13 (UniProt P35225 35-146, limits assumed, 125I label (site not stated))
T1 construct: also called labeled IL-13; interleukin 13
Assay: saturation binding analysis of 125I-IL-13 on BHK cells expressing Zcytor2
Experimental: The binding of ¹²⁵I-IL-13 to wild-type and Zcytor2-transfected BHK, TF-1, and BaF3 cells was determined. BHK cells were assayed in 6-well culture plates. TF-1 and BaF3 cells were assayed in microcentrifuge tubes. Cells were combined with 500 μl of either solution A (15 ml of binding buffer [RPMI containing 20 mM Tris pH7.4, 0.05% NaN₃, and 3 mg/ml BSA] plus 263 μl of ¹²⁵I-IL-13 [5.7×10⁷ cpm/ml]) or solution B (solution A containing 15 μl of cold 25 μg/ml IL-13). After a 2-hour incubation, cells were washed three times with 500 μl binding buffer and lysed in 500 μl of 400 mM NaOH. Lysates were transferred to tubes for gamma counting.

T1 sequence (P35225 35-146 limits assumed): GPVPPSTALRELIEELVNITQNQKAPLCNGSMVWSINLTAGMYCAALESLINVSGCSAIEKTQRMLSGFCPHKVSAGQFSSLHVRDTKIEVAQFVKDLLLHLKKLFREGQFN

B1: human Zcytor2 receptor expressed on transfected BHK cells (receptor)
chain: SSDTEIKVNPPQDFEIVDPGYLGYLYLQWQPPLSLDHFKEYTVEYELKYRNIGSETWKTIITKNLHYKDGFDLNKGIEAKIHTLLPWQCTNGSEVQSSWAETTYWISPQGIPETKVQDMDCVYYNWQYLLCSWKPGIGVLLDTNYNLFYWYEGLDLALQCVDYIKADGQNIGCRFPYLEASDYKDFYICVNGSSENKPIRSSYFTFQLQNIVKPLPPVYLTFTRESSCEIKLKWGIPLGPIPARCFDYEIEIREDDTTLVTATVENETYTLKTTNETRQLCFVVRSKVNIYCSDDGIWSEWSDKQCWEGEDLSKKTLLRFWLPFGFILILVIFVTGLLLRKPNTYPKMIPEFFCDT
notes: also called BHK/Zcytor2 cells; Zcytor2-transfected BHK
**Q.** For B1, which Kd is on record?
**A.** The Kd was 590 pM.
